Test results published in PMC7156267, “Cryo-EM structures of S-OPA1 reveal its interactions with membrane and changes upon nucleotide binding” (eLife, 2020).

Biological target: the molecule itself
Test: SEC; Superdex 200 10/300 GL, column pre-calibrated with molecular weight markers; 20 mM Tris-HCl pH 8.0, 150 mM NaCl, 1 mM DTT; self-association in solution

B1: S-OPA1 (short S1 isoform of human OPA1, splice form 1), wild type (natural protein, UniProt O60313 196-960, looked up)
chain: TDRGSESDKHFRKVSDKEKIDQLQEELLHTQLKYQRILERLEKENKELRKLVLQKDDKGIHHRKLKKSLIDMYSEVLDVLSDYDASYNTQDHLPRVVVVGDQSAGKTSVLEMIAQARIFPRGSGEMMTRSPVKVTLSEGPHHVALFKDSSREFDLTKEEDLAALRHEIELRMRKNVKEGCTVSPETISLNVKGPGLQRMVLVDLPGVINTVTSGMAPDTKETIFSISKAYMQNPNAIILCIQDGSVDAERSIVTDLVSQMDPHGRRTIFVLTKVDLAEKNVASPSRIQQIIEGKLFPMKALGYFAVVTGKGNSSESIEAIREYEEEFFQNSKLLKTSMLKAHQVTTRNLSLAVSDCFWKMVRESVEQQADSFKATRFNLETEWKNNYPRLRELDRNELFEKAKNEILDEVISLSQVTPKHWEEILQQSLWERVSTHVIENIYLPAAQTMNSGTFNTTVDIKLKQWTDKQLPNKAVEVAWETLQEEFSRFMTEPKGKEHDDIFDKLKEAVKEESIKRHKWNDFAEDSLRVIQHNALEDRSISDKQQWDAAIYFMEEALQARLKDTENAIENMVGPDWKKRWLYWKNRTQEQCVHNETKNELEKMLKCNEEHPAYLASDEITTVRKNLESRGVEVDPSLIKDTWHQVYRRHFLKTALNHCNLCRRGFYYYQRHFVDSELECNDVVLFWRIQRMLAITANTLRQQLTNTEVRRLEKNVKEVLEDFAEDGEKKIKLLTGKRVQLAEDLKKVREIQEKLDAFIEALHQEK
notes: Optic atrophy 1 (OPA1), human, splice form 1 (isoform 1); Dimer in solution by gel filtration, BS3 cross-linking and SEC-MALS; The first residue is worked out from the S1 site (195th residue) and the name of the deletion Δ196-252; also called WT; full-length S-OPA1; source: E. coli Transetta (DE3), purified (Ni-NTA, PreScission cleavage, Superdex 200 gel filtration); not shown: Trx, N-terminal, …
  stoichiometry N: 2
